± gives the uncertainty stated by the source.
Test: self-splicing fitness, log relative to wild type (ln ratio); higher = more splicing; Tetrahymena group I intron in knt gene, E. coli kanamycin selection, DiMSum; sequences stand for … in CUCUCU…GGAGGGAAAAGUUAUCAGGCAUGCACCUGGUAGCUAGUCUUUAAACCAAUAGAUUGCAUCGGUUUAAAAGGCAAGACCGUCAAAUUGCGGGAAAGGGGUCAACAGCCGUUCAGUACCAAGUCUCAGGGGAAACUUUGAGAUGGCCUUGCAAAGGGUAUGGUAAUAAGCUGACGGACAUGGUCCUAACCACGCAGCCAAGUCCUAAGUCAACAGAUCUUCUGUUGAUAUGGAUGCAGUUCACAGACUAAAUGUCGGUCGGGGAAGAUGUAUUCUUCUCAUAAGAUAUAGUCGGACCUCUCCUUAAUGGGAGCUAGCGGAUGAAGUGAUGCAACACUGGAGCCGCUGGGAACUAAUUUGUAUGCGAAAGUAUAUUGAUUAGUUUUGGAGUACUCGUGGUCG
Procedure, shortened: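 Colonies from six replicate transformations of E. coli BL21(DE3) were pooled and amplicon-sequenced on an Illumina HiSeq 2500. The library placed an intron with all eight P1ex-region nucleotides randomised inside the knt kanamycin-resistance gene on pET-22b(+), and cells grew overnight at 37°C or 30°C on LB agar with or without 25 μg/mL kanamycin (plus 100 μg/mL carbenicillin, 50 μM IPTG, 0.2% rhamnose). Fitness is the DiMSum error-weighted combination of wild-type-normalised replicate fold changes, kanamycin versus none.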

| Sequence | self-splicing fitness (ln) (30 °C) | self-splicing fitness (ln) (37 °C) |
| --- | --- | --- |
| AUAUAGCAAUAUUACGCUAC | -2.34 ± 0.33 | – |
| UUGGAGCAAUAUUACGCGUA | -3.77 ± 0.28 | -2.13 ± 0.23 |
| ACCGAGCAAUAUUACGAGCG | -3.24 ± 0.21 | -0.734 ± 0.16 |
| GUCCAGCAAUAUUACGCAUG | -2.14 ± 0.079 | -1.66 ± 0.082 |
| GAGAAGCAAUAUUACGGAGU | -3.2 ± 0.24 | 0.0737 ± 0.12 |
| UACUAGCAAUAUUACGCUUC | -2.88 ± 0.17 | -1.66 ± 0.26 |
| UUAUAGCAAUAUUACGAUAG | -0.194 ± 0.16 | -0.527 ± 0.16 |
| CAUUAGCAAUAUUACGUCGU | -4.03 ± 0.26 | -0.437 ± 0.17 |
| GACUAGCAAUAUUACGAGUA | -0.991 ± 0.067 | -0.253 ± 0.069 |
| GGACAGCAAUAUUACGAAUU | -0.588 ± 0.076 | 0.11 ± 0.11 |
| GGGAAGCAAUAUUACGCGUA | -0.73 ± 0.14 | -0.267 ± 0.14 |
| AAGUAGCAAUAUUACGUAAU | -2.31 ± 0.1 | 0.0619 ± 0.096 |
| GAGAAGCAAUAUUACGGUGG | -2.14 ± 0.14 | -2.93 ± 0.25 |
| GACCAGCAAUAUUACGCGGC | -3 ± 0.25 | -2.3 ± 0.29 |
| AAUGAGCAAUAUUACGUAUA | -3.43 ± 0.17 | -1.93 ± 0.13 |
| AACCAGCAAUAUUACGAGCG | -1.14 ± 0.072 | -0.281 ± 0.084 |
| UUUGAGCAAUAUUACGACAA | -1.26 ± 0.16 | -0.94 ± 0.17 |
| AUGCAGCAAUAUUACGCCGA | -1.55 ± 0.14 | -0.543 ± 0.17 |
| GAUGAGCAAUAUUACGCAUA | -2.68 ± 0.21 | -1.98 ± 0.21 |
| CGCAAGCAAUAUUACGGAGC | -2.49 ± 0.17 | -2.24 ± 0.24 |
| CGAUAGCAAUAUUACGAUUU | -2.52 ± 0.14 | -0.871 ± 0.14 |
| GCUUAGCAAUAUUACGCCGA | -2.42 ± 0.23 | -1.87 ± 0.27 |
| UCCUAGCAAUAUUACGCUAU | -2.89 ± 0.21 | -2.43 ± 0.27 |
| AUCCAGCAAUAUUACGCUUU | -0.879 ± 0.076 | -0.641 ± 0.086 |
| UGACAGCAAUAUUACGGGCA | -0.0919 ± 0.079 | 0.689 ± 0.093 |

| Sequence | self-splicing fitness (ln) (30 °C) | self-splicing fitness (ln) (37 °C) |
| --- | --- | --- |
| AGUCAGCAAUAUUACGAUCG | -0.601 ± 0.091 | 0.358 ± 0.14 |
| UACCAGCAAUAUUACGUUCA | -0.401 ± 0.06 | 0.27 ± 0.08 |
| ACGUAGCAAUAUUACGGGAU | -2.67 ± 0.16 | -1.97 ± 0.16 |
| AAACAGCAAUAUUACGAUGG | -3.16 ± 0.15 | -1.27 ± 0.16 |
| ACUCAGCAAUAUUACGCAGC | -2.14 ± 0.079 | -0.903 ± 0.093 |
| UGGAAGCAAUAUUACGGUGU | -1.46 ± 0.14 | -3.33 ± 0.27 |
| AAUGAGCAAUAUUACGAUGG | -1.98 ± 0.13 | -2.1 ± 0.26 |
| AGAAAGCAAUAUUACGAAGC | -3.61 ± 0.47 | -2.91 ± 0.48 |
| UACAAGCAAUAUUACGGGUG | -0.523 ± 0.04 | -0.55 ± 0.054 |
| CAAUAGCAAUAUUACGGUCA | -3.09 ± 0.18 | -1.55 ± 0.12 |
| CCUUAGCAAUAUUACGCACG | -2.02 ± 0.35 | – |
| CUGCAGCAAUAUUACGCAAG | -2.58 ± 0.18 | -2.83 ± 0.44 |
| GAAUAGCAAUAUUACGUCCU | -1.05 ± 0.11 | 0.425 ± 0.15 |
| AGAUAGCAAUAUUACGAAGC | – | -1.5 ± 0.28 |
| CGAAAGCAAUAUUACGUUAU | -3.68 ± 0.31 | -3.5 ± 0.29 |
| UUUUAGCAAUAUUACGAACA | – | -0.949 ± 0.48 |
| ACGUAGCAAUAUUACGCUAA | -1.84 ± 0.21 | -0.48 ± 0.13 |
| GCUGAGCAAUAUUACGAUUG | -4.26 ± 0.32 | -3.02 ± 0.22 |
| AGAGAGCAAUAUUACGUAGA | -3.63 ± 0.25 | -2.65 ± 0.34 |
| GACUAGCAAUAUUACGUCUC | -1.46 ± 0.16 | -0.484 ± 0.16 |
| UGGCAGCAAUAUUACGACUC | -1 ± 0.1 | -1.1 ± 0.12 |
| CGCGAGCAAUAUUACGUGUA | -3.72 ± 0.18 | -1.48 ± 0.11 |
| CAUUAGCAAUAUUACGUGCC | -2.77 ± 0.29 | -2.26 ± 0.45 |
| UACAAGCAAUAUUACGGACG | -0.321 ± 0.075 | 0.44 ± 0.097 |
| GCAGAGCAAUAUUACGGGAG | -2.81 ± 0.21 | -2.81 ± 0.32 |

| Sequence | self-splicing fitness (ln) (30 °C) | self-splicing fitness (ln) (37 °C) |
| --- | --- | --- |
| CAACAGCAAUAUUACGCCCC | – | -0.283 ± 0.4 |
| CGCCAGCAAUAUUACGACGC | -3.21 ± 0.2 | -2.97 ± 0.35 |
| GGCGAGCAAUAUUACGUUGG | -3.75 ± 0.32 | -2.92 ± 0.35 |
| UGAUAGCAAUAUUACGCACC | -1.02 ± 0.15 | -0.277 ± 0.22 |
| CUGGAGCAAUAUUACGUCAU | -4.18 ± 0.25 | -3.19 ± 0.4 |
| CCUAAGCAAUAUUACGGCCA | -2.55 ± 0.22 | -2.58 ± 0.26 |
| CUUGAGCAAUAUUACGGGGU | -3.14 ± 0.17 | -3.37 ± 0.27 |
| UACAAGCAAUAUUACGAAAC | – | -1.61 ± 0.32 |
| CGAUAGCAAUAUUACGUGGC | -2.8 ± 0.21 | -3.36 ± 0.46 |
| CCGGAGCAAUAUUACGGUGU | -3.21 ± 0.16 | -2.13 ± 0.19 |
| GCCUAGCAAUAUUACGUACU | -0.867 ± 0.092 | -0.282 ± 0.093 |
| AAUUAGCAAUAUUACGUUGC | -3.47 ± 0.46 | -2.75 ± 0.38 |
| AGAUAGCAAUAUUACGAACG | -1.12 ± 0.12 | -0.323 ± 0.13 |
| AUAUAGCAAUAUUACGGCUU | 0.0949 ± 0.099 | 0.269 ± 0.12 |
| CGUUAGCAAUAUUACGCGUC | -3.47 ± 0.23 | – |
| GUGUAGCAAUAUUACGACGA | -0.571 ± 0.14 | -0.584 ± 0.16 |
| CGGCAGCAAUAUUACGUGCC | -2.66 ± 0.28 | – |
| UAGCAGCAAUAUUACGCAUG | -0.793 ± 0.096 | -1.17 ± 0.14 |
| AGUAAGCAAUAUUACGCACG | -1.43 ± 0.1 | -0.219 ± 0.12 |
| GGGAAGCAAUAUUACGGCCU | -3.14 ± 0.26 | -1.35 ± 0.25 |
| UGUAAGCAAUAUUACGGGAG | -3.47 ± 0.24 | -1.94 ± 0.25 |
| CGCCAGCAAUAUUACGUAAA | -3.21 ± 0.19 | -1.46 ± 0.13 |
| UUUCAGCAAUAUUACGAACC | – | -1.08 ± 0.38 |
| ACUGAGCAAUAUUACGCCAC | – | -2.31 ± 0.35 |
| CGCGAGCAAUAUUACGUAUC | -3.93 ± 0.34 | -3.93 ± 0.36 |

| Sequence | self-splicing fitness (ln) (30 °C) | self-splicing fitness (ln) (37 °C) |
| --- | --- | --- |
| GCUAAGCAAUAUUACGGGUC | -2.55 ± 0.17 | -1.89 ± 0.15 |
| GUAUAGCAAUAUUACGGACA | -2.7 ± 0.27 | -1.1 ± 0.15 |
| CGAUAGCAAUAUUACGGGCU | – | 0.128 ± 0.17 |
| AGAGAGCAAUAUUACGUUCC | -1.63 ± 0.18 | -3.14 ± 0.47 |
| CCCGAGCAAUAUUACGGCUA | -3.46 ± 0.29 | -3.2 ± 0.32 |
| AUGUAGCAAUAUUACGAUCA | -0.747 ± 0.22 | -0.492 ± 0.18 |
| CAUAAGCAAUAUUACGUAGU | -3.82 ± 0.28 | -0.576 ± 0.17 |
| AGCCAGCAAUAUUACGGAUC | -2.03 ± 0.1 | -1.25 ± 0.13 |
| AUUGAGCAAUAUUACGCUCG | -2.02 ± 0.33 | -0.869 ± 0.22 |
| UUCAAGCAAUAUUACGCCCA | -0.837 ± 0.24 | 0.3 ± 0.21 |
| CGAAAGCAAUAUUACGCUAG | -2.3 ± 0.12 | -1.57 ± 0.12 |
| UUACAGCAAUAUUACGCCUU | -2.35 ± 0.22 | -0.83 ± 0.17 |
| CUGAAGCAAUAUUACGCGUU | -3.36 ± 0.18 | -2.86 ± 0.24 |
| CCGGAGCAAUAUUACGUUUU | -3.67 ± 0.3 | -2.6 ± 0.38 |
| AUAGAGCAAUAUUACGUCAU | -0.913 ± 0.087 | 0.145 ± 0.1 |
| UUCAAGCAAUAUUACGACCU | -2.33 ± 0.27 | -0.916 ± 0.18 |
| GCAGAGCAAUAUUACGCUCU | -3.93 ± 0.44 | – |
| AGAGAGCAAUAUUACGGUUU | -1.98 ± 0.19 | -2.58 ± 0.25 |
| AACCAGCAAUAUUACGCAUU | -1.58 ± 0.068 | 0.096 ± 0.086 |
| GAUCAGCAAUAUUACGUCCC | -2.07 ± 0.41 | -0.381 ± 0.22 |
| ACCUAGCAAUAUUACGGUAG | -3.45 ± 0.15 | -2.49 ± 0.18 |
| UAAAAGCAAUAUUACGUGCA | -0.586 ± 0.067 | -0.196 ± 0.079 |
| UUGUAGCAAUAUUACGGCGC | – | -2.34 ± 0.2 |
| GAUGAGCAAUAUUACGUUCA | -1.15 ± 0.079 | -0.819 ± 0.094 |
